The text below walks through data of PMC8254039, “Oxalate decarboxylase uses electron hole hopping for catalysis” (The Journal of Biological Chemistry, 2021).

Substitutions are numbered along the chain they refer to. In names and notes the source's numbering stands.

Series [1] concerns the molecule itself. Nature of the series: native gel or EMSA; native PAGE of the mutant proteins after purification, compared with WT (Fig. S3); self-assembly of the subunits.
Substrate in the series “purified protein”: O=C(O)C(=O)O
Nature of the series: purified protein. The note with it: pH 4.2, 25 °C.

[2] abbreviates: 50 mM poly buffer, 500 mM NaCl, Triton X-100, o-phenylenediamine, 1.93 Mn per subunit.
[3] abbreviates: same buffer, 0.58 Mn per subunit.
Setting [4] is: same buffer, 1.34 Mn per subunit.
Setting [5] is: same buffer, 1.89 Mn per subunit.
Setting [6] is: same buffer, 0.33 Mn per subunit.
Where [7] appears, read: same buffer, 0.55 Mn per subunit.

B1: oxalate decarboxylase (OxDC) of Bacillus subtilis, wild type, His6-tagged (enzyme)
chain: MKKQNDIPQPIRGDKGATVKIPRNIERDRQNPDMLVPPETDHGTVSNMKFSFSDTHNRLEKGGYAREVTVRELPISENLASVNMRLKPGAIRELHWHKEAEWAYMIYGSARVTIVDEKGRSFIDDVGEGDLWYFPSGLPHSIQALEEGAEFLLVFDDGSFSENSTFQLTDWLAHTPKEVIAANFGVTKEEISNLPGKEKYIFENQLPGSLKDDIVEGPNGEVPYPFTYRLLEQEPIESEGGKVYIADSTNFKVSKTIASALVTVEPGAMRELHWHPNTHEWQYYISGKARMTVFASDGHARTFNYQAGDVGYVPFAMGHYVENIGDEPLVFLEIFKDDHYADVSLNQWLAMLPETFVQAHLDLGKDFTDVLSKEKHPVVKKKCSK
notes: oxalate decarboxylase (OxDC), Bacillus subtilis, YvrK gene; Vector printed as PET32A with the YvrK gene; also called WT OxDC; WT; source: E. coli (overexpressed), purified (nickel-NTA, HiTrap Q anion exchange, Superdex 200 gel filtration)
For B1, in series [1], the binding result is “binds”. For the same protein, in “purified protein” (setting [2]), the Km amounted to 33.3 ± 0.4 mM and the kcat turned out to be 89.2 ± 1.4 s⁻¹.

B2: oxalate decarboxylase (OxDC) of Bacillus subtilis, W96F/W274F double mutant, His6-tagged (enzyme)
chain: B1 chain with W96F, W274F
notes: oxalate decarboxylase (OxDC), Bacillus subtilis, YvrK gene, with W96F and W274F; 385 residues per subunit; Said to assemble like the wild type on native PAGE; no crystal structure; source: E. coli (overexpressed), purified (nickel-NTA, HiTrap Q anion exchange, Superdex 200 gel filtration)
For the protein B2, the binding result in series [1] is on record as “binds”.

B3: oxalate decarboxylase (OxDC) of Bacillus subtilis, W274F mutant, His6-tagged (enzyme)
chain: B1 chain with W274F
notes: oxalate decarboxylase (OxDC), Bacillus subtilis, YvrK gene, with W274F; 385 residues per subunit; Said to assemble like the wild type on native PAGE; no crystal structure; source: E. coli (overexpressed), purified (nickel-NTA, HiTrap Q anion exchange, Superdex 200 gel filtration)
In the case of B3, the binding result in series [1] was “binds”. For the same protein, in “purified protein” (setting [3]), the Km came out at 6.7 ± 0.3 mM and the kcat is 1.10 ± 0.03 s⁻¹.

B4: oxalate decarboxylase (OxDC) of Bacillus subtilis, W96Y mutant, His6-tagged (enzyme)
chain: B1 chain with W96Y
notes: oxalate decarboxylase (OxDC), Bacillus subtilis, YvrK gene, with W96Y; 385 residues per subunit; Quaternary assembly in the crystal agrees with that of the hexameric wild type (5VG3); source: E. coli (overexpressed), purified (nickel-NTA, HiTrap Q anion exchange, Superdex 200 gel filtration)
Regarding B4, in series [1], the binding result was “binds”.

B5: oxalate decarboxylase (OxDC) of Bacillus subtilis, W96Y/W274Y double mutant, His6-tagged (enzyme)
chain: B1 chain with W96Y, W274Y
notes: oxalate decarboxylase (OxDC), Bacillus subtilis, YvrK gene, with W96Y and W274Y; 385 residues per subunit; Said to assemble like the wild type on native PAGE; no crystal structure; source: E. coli (overexpressed), purified (nickel-NTA, HiTrap Q anion exchange, Superdex 200 gel filtration)
On to B5, for which, in series [1], the binding result is recorded as “binds”.

B6: oxalate decarboxylase (OxDC) (Bacillus subtilis subsp. subtilis str. 168; W96Y) (protein)
chain: B1 chain with W96Y
As to B6, in “purified protein” (setting [4]), the Km is listed as 3.7 ± 0.9 mM and the kcat was found to be 5.3 ± 0.9 s⁻¹.

B7: oxalate decarboxylase (OxDC) (Bacillus subtilis subsp. subtilis str. 168; W274Y) (protein)
chain: B1 chain with W274Y
For the protein B7, in the series “purified protein” (setting [5]), the Km was 10.3 ± 3.1 mM and the kcat was 23.9 ± 2.8 s⁻¹.

B8: oxalate decarboxylase (OxDC) (Bacillus subtilis subsp. subtilis str. 168; W274Y/W96Y) (protein)
chain: B1 chain with W96Y, W274Y
As to B8, in the series “purified protein” (setting [6]), the Km amounted to 5.6 ± 0.5 mM and the kcat was found to be 0.20 ± 0.01 s⁻¹.

B9: oxalate decarboxylase (OxDC) of Bacillus subtilis, W274Y mutant, His6-tagged (enzyme)
chain: B1 chain with W274Y
notes: oxalate decarboxylase (OxDC), Bacillus subtilis, YvrK gene, with W274Y; 385 residues per subunit; Said to assemble like the wild type on native PAGE; no crystal structure; source: E. coli (overexpressed), purified (nickel-NTA, HiTrap Q anion exchange, Superdex 200 gel filtration)
For B9, in series [1], the binding result was “binds”.

B10: oxalate decarboxylase (OxDC) of Bacillus subtilis, W96F mutant, His6-tagged (enzyme)
chain: B1 chain with W96F
notes: oxalate decarboxylase (OxDC), Bacillus subtilis, YvrK gene, with W96F; 385 residues per subunit; Quaternary assembly in the crystal agrees with that of the hexameric wild type (5VG3); source: E. coli (overexpressed), purified (nickel-NTA, HiTrap Q anion exchange, Superdex 200 gel filtration)
On to B10, for which the binding result in series [1] is recorded as “binds”. Moreover, in the series “purified protein” (setting [7]), the Km stood at 16.0 ± 1.5 mM and the kcat is 1.00 ± 0.03 s⁻¹.

The Km is the concentration of substrate that gives half-maximal velocity. The term kcat denotes the maximal rate divided by the concentration of active sites.
